B1: TPR t1 (parent)
chain: GACCAAUCUGCCCUCAGAGCUCGAGAACAUCUUCGGAUGCAGAGGAGGCAGGCUUCGGUGGCGCGAUAGCGCCAACGUCCUCAACCUCCAAUGCAUCCCACCACAUGAUGAUGCCUGAAGAGCCUUGGUUUUUUG

Variants of: B1
Test: polymerase ribozyme fitness, log enrichment relative to wild type (log ratio); higher = more active; in vitro selection for triplet polymerase activity
Method in brief: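 The heterodimeric triplet polymerase ribozyme's subunits were each mutagenized into PCR-built libraries and transcribed. Every library was selected once, in triplicate, by annealing with a biotinylated primer, the partner subunit and triplets, incubating frozen at −7 °C, gel-excising extended constructs, capturing on streptavidin beads and running RT-PCR. Input and output libraries were Illumina-sequenced, with genotypes kept only at ≥10 input reads and ≥1 read per output. Fitness, from inverse-variance-weighted replicate averages, is the base-2 logarithm of genotype enrichment over wild-type enrichment.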

Row | Variant | polymerase ribozyme fitness (log ratio)
1 | A5G C11A U81C | -1.86
2 | C4G C13U C53U C115G A121U | 0.995
3 | A5G C82U | -0.0686
4 | C4G G48U C70U | -3.27
5 | C4U C98U G113U | -3.82
6 | A5U C11G C94U C104A G110C | -5.6
7 | A5C G44U G77U | -2.37
8 | C4A G127A | -1.82
9 | A5U A37G C72U | -0.735
10 | C4A U112A A119U C123U U125C | -0.636
11 | C4U A43C U125A | -3.11
12 | C4G U87A | -2.92
13 | C4U U112C | 1.38
14 | A5G G63A U67G U96A C123U | -5.12
15 | A5G G51A C86G | -2.82
16 | C4G A90U A100C C124U U132C | -4.88
17 | C4U C56A | -0.607
18 | C4A G93C A111U | -4.69
19 | C4G C11U C13U G47U C72G | -5.03
20 | C4G G63U | -1.88
21 | A5C G107A | -5.67

Row | Variant | polymerase ribozyme fitness (log ratio)
22 | C4G U7G U55A C99U U112G U132C | -4.94
23 | A5U C62A | -0.777
24 | A5U A46U G47C A50G C53U C86A C115G | -5.37
25 | C4U G42A C114G | -3.21
26 | C4A G93A | -1.73
27 | C4G C56G C64U | -3.26
28 | C4U A26G A41U C72U U87G A111C | -4
29 | A5U C94U | -1.16
30 | A5C C94U G110A | -2.08
31 | A5C G35U C56U G63A C70U U109A G117C U125G U130A | -6.63
32 | C4G C22U G23A A66U A83G C97G C99U U106A G113U C124A | -7.47
33 | C4G U9C A43G G47A C70U | -4.92
34 | A5G C49U C73U | -0.864
35 | A5G A27U A46G | -2.16
36 | A5U C11G C56U | -0.378
37 | C4U C49U U78A | -1.36
38 | A5C G69A U129A | -4.05
39 | A5C C8U C34A A75U C79U C101G | -3.24
40 | C4G G10U A18G U59G A83C U87A | -4.53
41 | A5G C8U C72G G110A | -1.25
42 | A5C C89U | -0.689

Row | Variant | polymerase ribozyme fitness (log ratio)
43 | C4G A90G C104U | -0.701
44 | C4U G52C G63A G110A | -4.4
45 | C4A G61A U78A G128U | -1.35
46 | A5U A66U A75G C76A C94A G120A U130G | -5.41
47 | C4A C72U U109A C115U | -6.54
48 | A5G C53U G71A G113A | -2.7
49 | A5C C8G A37U U38C A43C G57A G110A C124U | -5.51
50 | C4U G42A G45U G47A | -4.19
51 | C4U A41C | -1.67
52 | C4A C114G | -4.25
53 | A5U A37U U55A C123A | 0.562
54 | C4G C13A C89A U130C | -3.33
55 | C4G U78G C80U | -1.48
56 | C4A G61A G127A | -2.92
57 | A5C C64U | -0.365
58 | C4U C12A U59C A66C | -2.92
59 | C4G G71A | -1.72
60 | A5G G60A G117A G135C | -0.941
61 | C4U C34G G57A U67C G69A C124U G127C | -6.05
62 | A5C G39C C70U G113A G120A C123A | -2.68
63 | A5C G17A | -4.76

Row | Variant | polymerase ribozyme fitness (log ratio)
64 | A5G G60C | 0.0339
65 | A5U A68G C82G | -3.79
66 | A5C C64U G77U G110A | -3.72
67 | C4U C114A G128C | -4.42
68 | C4U C8G U33G C85G C94U | -6
69 | C4U C101G | -2.06
70 | A5C A37U G69A C123A G128A | -4.31
71 | C4A C72U G117C U131A | -5.79
72 | A5U C13U A16G G69C U92G C123A U132A | -2.65
73 | A5C C73A | -0.312
74 | A5C C56U G69U G120A G135C | -1.06
75 | A5G C49G G127C G128A | -2.99
76 | C4U G61A C89A | -1.4
77 | A5U C53U | -0.883
78 | A5C C34U G63C U129G | -4.67
79 | C4G C8G U9G U21G U96G A111U | -3.56
80 | A5G A6G C11U C28U G120U | -2.3
81 | A5U C72A | -0.164
82 | C4G G61C | -2.88
83 | C4G C40G C115U | -3.42

Reference: the RNAGym collection of RNA variant scans (doi:10.1073/pnas.2313332121)
